Results taken from patent US9127130B2, “Polylysine dendrimer contrast agent” (STARPHARMA PTY LTD., priority 2006, dated 2015).
Where two headings read alike, the source gives them in different places.

How the values were obtained:
human thrombi = assay: MRI of in vitro formed human plasma thrombi stained with Gadolinium loaded antibody-dendrimer constructs; type: cell-based
Procedure: Antibody-Dendrimer constructs (1.5 nmol) were loaded with Gadolinium by adding 64 nmol GdCl3.6H2O in PBS (0.1M, pH 7.4) overnight at room temperature under shaking. Excess Gadolinium was removed by dialysis (10,000 Dalton dialysis membrane, 12 h against 500 mL PBS with 3 buffer changes every 4 h).
To form human thrombi in vitro 1 mL platelet rich plasma (citrated blood spun down at 1000 rpm for 10 min) was mixed with 100 μL ADP, 88 μL Actin, 25 μL 1 M CaCl2 in a 1.5 mL reaction tube. Samples were incubated for 12 min at 37° C. in a water bath, incubated with antibody-dendrimer fusion product for another 30 min at 37° C. under continuous rotation. Thrombi were washed 3 times with 2 mL PBS for 10 min and fixed in formalin solution (1%) before imaging.
MRI of thrombi was performed on a 4.7 Tesla animal MRI scanner (Biospin Bruker). T1 weighted images with TE/TR 15 ms/350 ms were taken with a resolution of 512×512 μm (FOV 7 cm, average 4). 10 slices of 1 mm thickness were taken.

[1] = cited from earlier work

| Substance | stability of the conjugate ([1]; acidic conditions (pH 4-6)) | stability of the conjugate ([1]; pH 4) | stability of the conjugate ([1]; pH 5) | also measured |
| --- | --- | --- | --- | --- |
| MAL-(CH2)2CONH-PEG1100-CO-NEOEOEN[Su(NPN)2][Lys]8[Su-p-Bn-DTPA]16 [Example 7v] | – | – | – | MRI signal, control experiment (human thrombi; non reduced C-terminal cysteine antibody incubated with dendrimer): did not show any MRI signal; MRI signal, control experiment (human thrombi; non-modified antibody (no Traut's reagent) incubated with dendrimer): did not show any MRI signal |
| [TFA.NH2(CH2)5NHSu]NEOEOEN[Su(NPN)2]Lys8[Su-p-Bn-DTPA]16 [Example 9iv] | – | – | – | MRI signal, control experiment (human thrombi; antibody incubated with dendrimer but without the Transglutaminase coupling enzyme): did not show any MRI signal |
| α-methoxy-ω-{N-2-(3-hydroxypropyl-cholesterylcarbarnate)-2-methyl-[1,3]dioxan-5-yl-amido}-polyethyleneglycol110 | not stable | – | – | – |
| α-methoxy-ω-{N-(2-cholesteryloxy-[1,3]dioxolan-4-yl)methylamido}-polyethyleneglycol110 | – | moderately less stable | very stable | – |
| α-methoxy-ω-{N-(2-methyl-s-octadecyloxy-[1,3]dioxan-5-yl)-amido}-polyethyleneglycol110 | not stable | – | – | – |
| α-methoxy-ω-{N-(2-octadecyloxy-[1,3]dioxolan-4-yl)methylamido}-polyethyleneglycol110 | – | good stability | good stability | – |
